Tests used:
THP-1 = test: M1 macrophage marker ELISA in THP-1; format: cell-based, human; conditions: THP-1, 10 μg/mL, 48 hours, antibody alone
Description: In order to identify whether the induction of differentiation of monocytes into M1 macrophages increases when the cells are treated with the anti-CD300c monoclonal antibody CL7 produced in Example 1 and an immunotherapeutic agent, such as Imfinzi as an anti-PD-L1 antibody, Opdivo as an anti-PD-1 antibody, KEYTRUDA as an anti-PD-1 antibody, an anti-CD47 antibody (αCD47), and an anti-CTLA-4 antibody, alone in combination, THP-1 was dispensed into a 96-well plate at 1.5×10^4 cells/well and treated with the anti-CD300c monoclonal antibody and the immunotherapeutic agent, respectively, at 10 μg/mL alone or in combination, followed by incubation for 48 hours, and the production levels of tumor necrosis factor-α (TNF-α), IL-1b, and IL-8, which are differentiation markers of M1 macrophages, were measured using an ELISA kit (Human TNF-α Quantikine kit, R&D Systems).

[1] = system: colon cancer cell line (CT26) tumor; test: In vivo cancer growth inhibition, CT26 model, CL7 and anti-PD-1; design: species or system BALB/c mice; conditions: CL7 10 mg/kg, anti-PD-1 10 mg/kg i.p. D12, D15, D19, D22; 25 days
Description: In order to identify anticancer effects of the anti-CD300c monoclonal antibody CL7 under in vivo conditions, a colon cancer cell line (CT26) at 2×10^5 cells was transplanted by subcutaneous injection into 8-week-old BALB/c mice to prepare syngeneic mouse tumor models. Animal breeding and experiments were all conducted in a SPF facility. On day 12 (D12) after transplantation of the colon cancer cell line, the mice with a tumor size of 50 mm^3 to 100 mm^3 were administered the anti-CD300c monoclonal antibody and an anti-PD-1 antibody purchased from BioXcell alone or in combination, and for a control group, the mice were administered the same amount of phosphate buffered saline (PBS). Specifically, the mice were intraperitoneally injected with the respective antibodies (CL7: 10 mg/kg; and anti-PD-1 antibody: 10 mg/kg) alone or in combination, twice a week for two weeks (a total of 4 times on D12, D15, D19, and D22). The tumor volume was measured for 25 days.

[2] = system: colon cancer cell line (CT26) tumor; test: Tumor immune cell FACS analysis in CT26 syngeneic mouse tumor model; format: in vivo, BALB/c mice
Excerpt: In order to identify effects of the anti-CD300c monoclonal antibody CL7 on tumor-associated macrophages under in vivo conditions, a colon cancer cell line (CT26) at 2×10^5 cells was transplanted by subcutaneous injection into 8-week-old BALB/c mice to prepare syngeneic mouse tumor models. Animal breeding and experiments were all conducted in a specific pathogen free (SPF) facility. In addition, 12 days after transplantation of the colon cancer cell line, the mice with a tumor size of 50 mm^3 to 100 mm^3 were separately administered the anti-CD300c monoclonal antibody, and for a control group, the mice were injected with the same amount of phosphate buffered saline (PBS). The mice were intraperitoneally injected with 25 mg/kg of each substance twice a week for two weeks over a total of 4 times. On day 25 after the injection, the mice were sacrificed, and the tumor tissue was collected from each of six mice in the CL7 25 mg/kg administration group showing a highest antitumor effect compared with the control group. The tumor tissue was taken out and then incubated at 37° C. for 1 hour in a mixed solution of collagenase D (20 mg/mL) and DNase I (2 mg/mL). Thereafter, the resultant product was filtered through a 70 μm cell strainer, followed by the lysis of red blood cells, and then again filtered through a nylon mesh. Subsequently, the single cell suspension was blocked with CD16/32 antibody (from Invitrogen), and the cells were stained with a staining solution for checking cell viability (from Invitrogen), and antibodies (from Abcam) to the total macrophage marker F4/80 and the M1 macrophage marker iNOS. Then, the data were read with CytoFLEX flow cytometer and analyzed with FlowJo software.
In order to identify effects of the anti-CD300c monoclonal antibody CL7 on CD8+ T cells under in vivo conditions, syngeneic mouse tumor models were prepared as in Experimental Example 3.2 and administered the anti-CD300c monoclonal antibody at the same concentration.
(§1) On day 25 after the injection, the mice were sacrificed, and the tumor tissue was collected from each of six mice in the CL7 25 mg/kg administration group showing a highest antitumor effect compared with the control group. The tumor tissue was taken out and then incubated at 37° C. for 1 hour in a mixed solution of collagenase D (20 mg/mL) and DNase I (2 mg/mL). Thereafter, the resultant product was filtered through a 70 μm cell strainer, followed by the lysis of red blood cells, and then again filtered through a nylon mesh. Subsequently, the single cell suspension was blocked with CD16/32 antibody (from Invitrogen), and the cells were stained with a staining solution for checking cell viability and a CD8+ antibody (from Abcam) and a CD4+ antibody (from Abcam). Thereafter, the data were read with CytoFLEX flow cytometer and analyzed with FlowJo software.
as §1, with “In order to identify whether the anti-CD300c monoclonal antibody CL7 increases the number of CD8+ T cells in a tumor-specific manner, syngeneic mouse tumor models were prepared as in Experimental Example 3.2 and administered the anti-CD300c monoclonal antibody at the same concentration. On” for “On”, “AH1 tetramer” for “a CD8+ antibody (from Abcam) and a CD4+”, “software. […]” for “software.”

CD300a antigen = target: T1, CD300a antigen (Homo sapiens, UniProt Q9UGN4); test: CD300a cross-reactivity binding ELISA; conditions: CD300a antigen 0.039, 0.63, 10 μg/mL
T1 construct: purchased Sino Biological 12449-H08H
T1 sequence (Q9UGN4 18-180 limits assumed): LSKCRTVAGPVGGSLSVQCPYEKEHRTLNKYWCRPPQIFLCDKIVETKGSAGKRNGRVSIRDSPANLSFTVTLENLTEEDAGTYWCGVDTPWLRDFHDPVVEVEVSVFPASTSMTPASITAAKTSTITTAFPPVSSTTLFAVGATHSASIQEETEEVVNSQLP
Description: More specifically, the CD300a antigen (from Sino Biological) was used to treat at concentrations of 0.039 μg/mL, 0.63 μg/mL, and 10 μg/mL, and then binding ELISA was performed by the same method as in Experimental Example 2.1.

[3] = Experimental Example 3.7, 25 mg/kg i.p., day 25

B1: CL7: anti-CD300c monoclonal antibody, VH3VL1 phage library, VH SEQ ID 327, VL SEQ ID 328 (antibody, V domains shown)
VH: EVQLLESGGGLVQPGGSLRLSCAASGFTFSRYAMSWVRQAPGKGLEWVSAISGSGGSTYYADSVKGRFTISRDNSKNTLYLQMNSLRAEDTAVYYCARSSQGIFDIWGQGTLVTVSS
VL: QSVLTQPPSASGTPGQRVTISCSGNNIGTRRVHWYQQLPDTAPKLLIYSKNNRPSGVPDRFSGSKSGTSASLAISGLRSEDEADYYCAAWDDSLSGPVFGGGTKLTVL
modifications: CL7 Heavy Chain Variable Region; CL7 Light Chain Variable Region
- production level of IL-8 (THP-1): significantly increased
- production levels of all three differentiation markers (TNF-α, IL-1b, IL-8) (THP-1): increased
- cancer growth (tumor volume) [1]: inhibited
- expression level of M1 type tumor-associated macrophages in cancer tissue ([2]; 25 mg/kg i.p. twice a week, 4 times, day 25, vs PBS): increased
- CD8+ T cells compared with Treg T cells ([2]; 25 mg/kg i.p., day 25): increased
- expression of AH1 tetramer in CD8+ T cells ([2]; 25 mg/kg i.p., day 25): increased
- number of T cells in tumor ([2]; 25 mg/kg i.p., day 25, CD8+/CD4+ staining): increased
- activated CD8+ T cells [2, 3]: significantly increased
- regulatory T cells [2, 3]: inhibited
- tumor-associated macrophage phenotype [2, 3]: repolarized tumor-associated macrophages towards M1 phenotype
- binding to antigens other than CD300c (CD300a) (CD300a antigen): did not bind to antigens other than CD300c

Source: US20240254220A1, “COMBINED THERAPY USING ANTI-CD300C ANTIBODY” (CentricsBio, Inc., priority 2021, published 2024)
